Series [1] concerns the target recombinant C. elegans mitochondrial malate dehydrogenase MDH-2 (F20H11.3), mitochondrial import sequence removed (C. elegans). Kind of series: SEC.
The series “SEC” concerns the molecule itself. Kind of series: SEC.

As for “recombinant C. elegans mitochondrial malate dehydrogenase MDH-2 (F20H11.3), mitochondrial import sequence removed (enzyme)”, the stoichiometry N in series [1] was 2.

B1: recombinant C. elegans cytoplasmic malate dehydrogenase MDH-1 (F46E10.10) (enzyme)
chain: MSAPLRVLVTGAAGQIGYSIVIRIADGTVFGKEQPVELVLLDVPQCSNILEGVVFELQDCALPTLFSVVAVTDEKSAFTGIDYAFLVGAMPRREGMERKDLLAANVKIFKSQGKALAEYAKPTTKVIVVGNPANTNAFIAAKYAAGKIPAKNFSAMTRLDHNRALAQLALKTGTTIGNVKNVIIWGNHSGTQFPDVTHATVNKNGTETDAYAAVGDNAFLQGPFIATVQKRGGVIIEKRKLSSAMSAAKAACDHIHDWHFGTKAGQFVSMAVPSDGSYGIPQGLIFSFPVTIEGGEWKIVQGLSFDDFAKGKIAATTKELEEERDDALKACDDANIA
As for B1, in the series “SEC”, the “stoichiometry N” value amounted to 2.
